The results in this text go back to article doi:10.1101/2025.06.05.658000.

Common to all, as to assay: ELISA
The target of assay [1] is HLA-DR (DRA1*01:01 / DRB1*01:01), soluble knob-into-hole Fc heterodimer (human).
Assay [2] deals with HLA-DR (DRA1*01:01 / DRB1*13:01), soluble knob-into-hole Fc heterodimer (human).
Assay [3] has as its target HLA-DR (DRA1*01:01 / DRB1*13:02), soluble knob-into-hole Fc heterodimer (human).
The target of assay [4] is HLA-DR (DRA1*01:01 / DRB1*13:01), soluble knob-into-hole Fc heterodimer (human). The source holds these as a separate data set.
For another assay, the target named is The majority of HLA-DR.
In assay [5] the target is HLA-DR (DRA1*01:01 / DRB1*13:02), soluble knob-into-hole Fc heterodimer (human). The source holds these as a separate data set.

Read-outs that look alike come from different tables or passages of the source. Some results are limits rather than exact numbers.

On to “SARS-CoV-2 RBD peptide RBD487-501 (from UniProt P0DTC2 487-501)”, for which the concentration for half-maximal inhibition (IC50) in assay [1] came out at 293 nM.

For the substance “SARS-CoV-2 RBD peptide RBD491-505 (from UniProt P0DTC2 491-505)”, in assay [1], the IC50 was 152 nM.

Turning to “biotin-labeled human Class II-associated Invariant Chain Peptide (Bio-CLIP)”, the affinity was 300 nM in assay [2]; 4 µM in assay [3]; under 300 nM in assay [4]; 0 to 25 nM in the assay with The majority of HLA-DR; under 300 nM in assay [5].
